Reference: patent US20030068675, “Position dependent recognition of GNN nucleotide triplets by zinc fingers” (published 2003)

How the values were obtained:
Assay in all cases: EMSA
Conditions in all cases: tags: MBP fusion
[1] = molecular target: T1, ZFP SBS#1197 (synthetic)
T1 chain: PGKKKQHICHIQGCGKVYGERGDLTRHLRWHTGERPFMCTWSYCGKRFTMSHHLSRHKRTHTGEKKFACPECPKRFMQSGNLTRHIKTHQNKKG
Outline: (§1)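 Purified ZFP was titrated against labeled double-stranded target (1 nM or lower, at least 10-fold below expected Kd) carrying the natural binding site with flanks. Binding buffer was 10 mM Tris pH 7.5, 100 mM KCl, 1 mM MgCl2, 0.1 mM ZnCl2, 5 mM DTT, 10% glycerol, 0.02% BSA, with equilibration for at least 45 min. Bound and free target were separated on a 10% polyacrylamide gel.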

[2] = molecular target: T2, ZFP SBS#1202 (synthetic, UniProt P08047)
T2 chain: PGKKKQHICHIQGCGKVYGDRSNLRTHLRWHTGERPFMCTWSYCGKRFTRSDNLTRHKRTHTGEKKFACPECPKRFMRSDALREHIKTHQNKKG
Outline: as §1

[3] = molecular target: ZFP SBS#1192 (synthetic)
Outline: as §1

[4] = molecular target: ZFP SBS#1190 (synthetic)
Outline: as §1

[5] = molecular target: T3, ZFP SBS#1191 (synthetic)
T3 chain: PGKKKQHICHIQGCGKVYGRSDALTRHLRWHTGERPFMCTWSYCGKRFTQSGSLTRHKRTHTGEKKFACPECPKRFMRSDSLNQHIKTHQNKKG
Outline: as §1

[6] = molecular target: T4, ZFP SBS#1193 (synthetic)
T4 chain: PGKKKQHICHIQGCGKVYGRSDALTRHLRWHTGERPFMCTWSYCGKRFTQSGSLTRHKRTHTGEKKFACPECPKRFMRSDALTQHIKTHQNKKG
Outline: as §1

[7] = molecular target: T5, ZFP SBS#1209 (synthetic)
T5 chain: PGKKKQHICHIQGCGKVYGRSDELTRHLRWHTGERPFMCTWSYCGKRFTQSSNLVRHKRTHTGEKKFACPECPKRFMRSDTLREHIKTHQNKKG
Outline: as §1

[8] = molecular target: T6, ZFP SBS#1116 (synthetic)
T6 chain: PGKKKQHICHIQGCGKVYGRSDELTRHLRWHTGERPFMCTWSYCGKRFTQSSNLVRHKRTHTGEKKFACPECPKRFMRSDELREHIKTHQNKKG
Outline: as §1

[9] = molecular target: ZFP SBS#1151 (synthetic)
Outline: as §1

[10] = molecular target: ZFP SBS#1188 (synthetic)
Outline: as §1

[11] = molecular target: T7, ZFP SBS#479 (synthetic, UniProt P08047)
T7 chain: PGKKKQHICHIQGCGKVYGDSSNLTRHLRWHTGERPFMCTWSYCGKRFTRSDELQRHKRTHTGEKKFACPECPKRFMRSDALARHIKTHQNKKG
Outline: as §1

[12] = molecular target: T8, ZFP SBS#480 (synthetic)
T8 chain: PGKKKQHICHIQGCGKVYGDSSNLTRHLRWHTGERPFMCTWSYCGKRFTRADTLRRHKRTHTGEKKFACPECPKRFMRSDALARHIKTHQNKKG
Outline: as §1

[13] = molecular target: ZFP SBS#1205 (synthetic)
Outline: as §1

[14] = molecular target: T9, ZFP SBS#1104 (synthetic)
T9 chain: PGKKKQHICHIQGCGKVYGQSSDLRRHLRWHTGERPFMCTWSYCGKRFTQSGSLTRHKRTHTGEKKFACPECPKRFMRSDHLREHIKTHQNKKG
Outline: as §1

[15] = molecular target: T10, ZFP SBS#1184 (synthetic)
T10 chain: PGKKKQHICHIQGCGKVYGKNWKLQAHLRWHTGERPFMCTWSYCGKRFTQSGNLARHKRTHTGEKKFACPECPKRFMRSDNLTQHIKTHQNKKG
Outline: as §1

[16] = molecular target: ZFP SBS#1180 (synthetic)
Outline: as §1

[17] = molecular target: T11, ZFP SBS#1185 (synthetic)
T11 chain: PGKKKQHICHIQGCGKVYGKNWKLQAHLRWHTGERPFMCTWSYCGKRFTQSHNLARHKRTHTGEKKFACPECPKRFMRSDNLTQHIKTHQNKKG
Outline: as §1

[18] = molecular target: T12, ZFP SBS#1199 (synthetic)
T12 chain: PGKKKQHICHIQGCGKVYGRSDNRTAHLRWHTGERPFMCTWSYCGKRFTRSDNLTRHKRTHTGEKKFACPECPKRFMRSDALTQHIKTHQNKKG
Outline: as §1

[19] = molecular target: T13, ZFP SBS#1201 (synthetic)
T13 chain: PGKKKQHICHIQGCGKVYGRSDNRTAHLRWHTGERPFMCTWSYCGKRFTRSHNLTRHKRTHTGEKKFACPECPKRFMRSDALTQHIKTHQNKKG
Outline: as §1

[20] = molecular target: T14, ZFP SBS#1200 (synthetic)
T14 chain: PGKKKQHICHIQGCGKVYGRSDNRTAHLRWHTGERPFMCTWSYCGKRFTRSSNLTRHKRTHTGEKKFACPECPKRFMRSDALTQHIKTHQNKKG
Outline: as §1

[21] = molecular target: ZFP SBS#1204 (synthetic)
Outline: as §1

[22] = molecular target: ZFP SBS#1203 (synthetic)
Outline: as §1

[23] = molecular target: ZFP SBS#1117 (synthetic)
Outline: as §1

[24] = molecular target: ZFP SBS#1211 (synthetic)
Outline: as §1

[25] = molecular target: ZFP SBS#1179 (synthetic)
Outline: as §1

[26] = molecular target: T15, ZFP SBS#1195 (synthetic)
T15 chain: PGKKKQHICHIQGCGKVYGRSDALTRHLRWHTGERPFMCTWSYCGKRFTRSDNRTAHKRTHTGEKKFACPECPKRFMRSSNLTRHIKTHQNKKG
Outline: as §1

[27] = molecular target: T16, ZFP SBS#1194 (synthetic)
T16 chain: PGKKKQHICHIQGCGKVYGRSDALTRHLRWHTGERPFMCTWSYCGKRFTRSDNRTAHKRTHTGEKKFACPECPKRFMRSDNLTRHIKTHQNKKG
Outline: as §1

[28] = molecular target: T17, ZFP SBS#1187 (synthetic, UniProt P08047)
T17 chain: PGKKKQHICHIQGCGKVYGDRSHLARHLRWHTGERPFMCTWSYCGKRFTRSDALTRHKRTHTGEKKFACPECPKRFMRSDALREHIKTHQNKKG
Outline: as §1

[29] = molecular target: T18, ZFP SBS#1186 (synthetic)
T18 chain: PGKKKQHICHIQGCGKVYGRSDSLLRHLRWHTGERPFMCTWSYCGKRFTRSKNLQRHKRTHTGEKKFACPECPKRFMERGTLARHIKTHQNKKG
Outline: as §1

[30] = molecular target: ZFP SBS#483 (synthetic)
Outline: as §1

[31] = molecular target: T19, ZFP SBS#1157 (synthetic)
T19 chain: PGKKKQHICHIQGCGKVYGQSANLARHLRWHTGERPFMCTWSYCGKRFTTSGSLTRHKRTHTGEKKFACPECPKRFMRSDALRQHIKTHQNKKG
Outline: as §1

[32] = molecular target: T20, ZFP SBS#1156 (synthetic)
T20 chain: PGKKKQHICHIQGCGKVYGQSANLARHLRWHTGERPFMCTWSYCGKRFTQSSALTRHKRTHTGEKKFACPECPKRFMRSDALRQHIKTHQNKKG
Outline: as §1

[33] = molecular target: T21, ZFP SBS#1189 (synthetic)
T21 chain: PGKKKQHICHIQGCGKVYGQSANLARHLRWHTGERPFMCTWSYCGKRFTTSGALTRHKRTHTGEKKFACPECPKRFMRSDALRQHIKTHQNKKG
Outline: as §1

[34] = molecular target: ZFP SBS#1107 (synthetic)
Outline: as §1

[35] = molecular target: ZFP SBS#1206 (synthetic)
Outline: as §1

[36] = molecular target: T22, ZFP SBS#1108 (synthetic)
T22 chain: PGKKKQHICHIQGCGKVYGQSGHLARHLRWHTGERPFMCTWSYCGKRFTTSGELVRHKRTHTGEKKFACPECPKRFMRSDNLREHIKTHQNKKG
Outline: as §1

[37] = molecular target: T23, ZFP SBS#1207 (synthetic)
T23 chain: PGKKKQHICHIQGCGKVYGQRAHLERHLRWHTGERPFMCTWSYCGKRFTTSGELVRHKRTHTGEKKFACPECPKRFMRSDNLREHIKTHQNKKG
Outline: as §1

ZFP SBS#1117 (synthetic), sequence (chain, as listed by the source): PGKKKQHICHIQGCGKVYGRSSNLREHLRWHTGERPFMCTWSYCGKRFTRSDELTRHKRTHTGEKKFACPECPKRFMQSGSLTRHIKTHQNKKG
ZFP SBS#1151 (synthetic), sequence (chain, as listed by the source): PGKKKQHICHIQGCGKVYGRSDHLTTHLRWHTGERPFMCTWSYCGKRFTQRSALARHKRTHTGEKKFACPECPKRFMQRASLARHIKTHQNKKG
ZFP SBS#1180 (synthetic), sequence (chain, as listed by the source): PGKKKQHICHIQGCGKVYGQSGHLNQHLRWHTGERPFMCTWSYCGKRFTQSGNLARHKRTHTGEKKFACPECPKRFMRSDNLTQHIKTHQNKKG
ZFP SBS#1190 (synthetic), sequence (chain, as listed by the source): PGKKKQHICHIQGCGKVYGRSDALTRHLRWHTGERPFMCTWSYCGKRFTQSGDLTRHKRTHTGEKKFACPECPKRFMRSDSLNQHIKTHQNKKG
ZFP SBS#1188 (synthetic), sequence (chain, as listed by the source): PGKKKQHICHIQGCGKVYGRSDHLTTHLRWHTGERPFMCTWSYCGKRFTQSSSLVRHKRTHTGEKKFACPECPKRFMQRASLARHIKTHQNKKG
ZFP SBS#1179 (synthetic), sequence (chain, as listed by the source): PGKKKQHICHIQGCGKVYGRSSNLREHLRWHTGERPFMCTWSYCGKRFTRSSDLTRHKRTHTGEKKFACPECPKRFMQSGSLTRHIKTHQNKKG
ZFP SBS#1206 (synthetic), sequence (chain, as listed by the source): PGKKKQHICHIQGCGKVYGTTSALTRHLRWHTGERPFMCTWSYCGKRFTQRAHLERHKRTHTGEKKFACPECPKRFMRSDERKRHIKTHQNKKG
ZFP SBS#1204 (synthetic), sequence (chain, as listed by the source): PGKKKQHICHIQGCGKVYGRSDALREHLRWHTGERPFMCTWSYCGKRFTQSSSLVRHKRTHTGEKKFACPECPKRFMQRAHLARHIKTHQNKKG
ZFP SBS#483 (synthetic), sequence (chain, as listed by the source): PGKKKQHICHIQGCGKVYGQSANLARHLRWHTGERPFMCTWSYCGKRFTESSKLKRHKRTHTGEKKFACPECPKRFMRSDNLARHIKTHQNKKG
ZFP SBS#1205 (synthetic), sequence (chain, as listed by the source): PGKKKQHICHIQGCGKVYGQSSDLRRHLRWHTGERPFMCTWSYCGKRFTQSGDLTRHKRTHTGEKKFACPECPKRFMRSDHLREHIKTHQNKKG
ZFP SBS#1211 (synthetic), sequence (chain, as listed by the source): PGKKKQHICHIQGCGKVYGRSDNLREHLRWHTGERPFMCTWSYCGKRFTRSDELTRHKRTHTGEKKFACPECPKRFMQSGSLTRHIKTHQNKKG
ZFP SBS#1192 (synthetic), sequence (chain, as listed by the source): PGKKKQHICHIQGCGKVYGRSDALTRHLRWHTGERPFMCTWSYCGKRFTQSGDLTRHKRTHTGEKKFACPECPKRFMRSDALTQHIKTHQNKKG

B1: GAAGGTGCC (dsDNA)
DNA 1: GAAGGTGCC
DNA 2: GGCACCTTC
Kd [1]: 14.8 nM

B2: CTGGAGTAC (dsDNA)
DNA 1: CTGGAGTAC
DNA 2: GTACTCCAG
Kd [2]: 2.83 nM

B3: ATGGCAGTG (dsDNA)
DNA 1: ATGGCAGTG
DNA 2: CACTGCCAT
Kd [3]: 2.36 nM | Kd [4]: 1.48 nM | Kd [5]: 5.33 nM | Kd [6]: 3.12 nM

B4: CCGGAAGCG (dsDNA)
DNA 1: CCGGAAGCG
DNA 2: CGCTTCCGG
Kd [7]: 19.3 nM | Kd [8]: 12.3 nM

B5: GTAGTATGG (dsDNA)
DNA 1: GTAGTATGG
DNA 2: CCATACTAC
Kd [9]: 1.63 nM | Kd [10]: 2.74 nM

B6: GTGGCGGACC (dsDNA)
DNA 1: GTGGCGGACC
DNA 2: GGTCCGCCAC
Kd [11]: 8.5 nM | Kd [12]: 5 nM

B7: CGGGCAGCT (dsDNA)
DNA 1: CGGGCAGCT
DNA 2: AGCTGCCCG
Kd [13]: 0.9 nM | Kd [14]: 0.08 nM

B8: AAGGAAAGA (dsDNA)
DNA 1: AAGGAAAGA
DNA 2: TCTTTCCTT
Kd [15]: 2.79 nM | Kd [16]: 4.83 nM | Kd [17]: 5.25 nM

B9: ATGGAGAAG (dsDNA)
DNA 1: ATGGAGAAG
DNA 2: CTTCTCCAT
Kd [18]: 3.43 nM | Kd [19]: 14.8 nM | Kd [20]: 16.9 nM

B10: GGAGTACTG (dsDNA)
DNA 1: GGAGTACTG
DNA 2: CAGTACTCC
Kd [21]: 4.38 nM | Kd [22]: 2.94 nM

B11: GCAGCGCAG (dsDNA)
DNA 1: GCAGCGCAG
DNA 2: CTGCGCTGC
Kd [23]: 2.85 nM | Kd [24]: 6.5 nM | Kd [25]: 2.73 nM

B12: GAGAAGGTG (dsDNA)
DNA 1: GAGAAGGTG
DNA 2: CACCTTCTC
Kd [26]: 2.8 nM | Kd [27]: 2.19 nM

B13: CTGGTGGGC (dsDNA)
DNA 1: CTGGTGGGC
DNA 2: GCCCACCAG
Kd [28]: 6 pM

B14: GCCGAGGTG (dsDNA)
DNA 1: GCCGAGGTG
DNA 2: CACCTCGGC
Kd [29]: 27.5 nM

B15: GAGGGCGAAG (dsDNA)
DNA 1: GAGGGCGAAG
DNA 2: CTTCGCCCTC
Kd [30]: 130 nM

B16: ATGGTTGAA (dsDNA)
DNA 1: ATGGTTGAA
DNA 2: TTCAACCAT
Kd [31]: 0.885 nM | Kd [32]: 7.2 nM | Kd [33]: 1.51 nM

B17: GCGGGAGTT (dsDNA)
DNA 1: GCGGGAGTT
DNA 2: AACTCCCGC
Kd [34]: 0.06 nM | Kd [35]: 0.034 nM

B18: CAGGCTGGA (dsDNA)
DNA 1: CAGGCTGGA
DNA 2: TCCAGCCTG
Kd [36]: 7 pM | Kd [37]: 0.45 nM
